Source: the RNAGym collection of RNA variant scans (doi:10.1073/pnas.2313332121)

B1: TPR t1 (parent)
chain: GACCAAUCUGCCCUCAGAGCUCGAGAACAUCUUCGGAUGCAGAGGAGGCAGGCUUCGGUGGCGCGAUAGCGCCAACGUCCUCAACCUCCAAUGCAUCCCACCACAUGAUGAUGCCUGAAGAGCCUUGGUUUUUUG

Variants of: B1
Assay: polymerase ribozyme fitness, log enrichment relative to wild type (log ratio); higher = more active; in vitro selection for triplet polymerase activity
In short: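 Only genotypes with ≥10 input reads and ≥1 read per output were kept after Illumina sequencing of input and output libraries. These libraries were PCR-built, transcribed mutants of each subunit of a heterodimeric triplet polymerase ribozyme, each put through one triplicate in vitro selection round with frozen incubation at −7 °C, gel excision of extended constructs, streptavidin-bead capture and RT-PCR. Fitness is a logarithmic ratio of genotype enrichment to wild-type enrichment, from inverse-variance-weighted replicate averages, with the logarithm in base 2.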

Question: With GACCAAUCUCCCCUCAGAGCUCGAGGACAUCUUCGGAUGCAGAGGAGGCAGGCUUCGGUGGCGCGAUAACGCCAACGUCCUCAACCUCCAAUGCAUCCCACCACAUGAUGAUGCCUGAAGAGCCAUGGUUUUUUG [G10C A26G G69A U125A] as the variant, how does the “polymerase ribozyme fitness (log ratio)” value read?
Answer: -5.51

Question: For GACCAAUCUCCCCUCAGUGCUCGAGAACAUCUUCGGAUGCAGAGGAGGCAGGCUUCGGUGGCGCGAUAGCGCCAACGUCCUCAACCUCCAAUGCAUCCCACCACAUGAUGAUGCCUGAAGAGCCUUGGUUUUUUG [G10C A18U], which “polymerase ribozyme fitness (log ratio)” value is on record?
Answer: -3.34

Question: For GACCAAUCUACCCUCAGAGCUCGAGAACAUCUGCGGAUGCAGAGGAGGCAGGCUUCGGUGGCGCGAUAGCGCCAACGUCCUCAACCUCCAAUGCAUCCCACCACAUGAUGAUGCCUGAAGAGCCUUGGUUUUUUG [G10A U33G], which “polymerase ribozyme fitness (log ratio)” value is on record?
Answer: -4.61

Question: For GACCAAUCUCCCCUCAGAGCUCGAGAACAUCUUCGGAUGCAGUGGAGGCAGGCUUCGGUGGCGCGAUAGCGCCAACGUCCUCAACCUCCAAUGCAUCCCACCACAUGAUGAUGCCUGAAGAGCCUUGGCUUUUUG [G10C A43U U129C], which “polymerase ribozyme fitness (log ratio)” value is on record?
Answer: -3.15

Question: With GACCAAUCUACCCUCAGAGCUCGAGAACAUCUUCGGAUGCAGAGGAGGCAGGCUUCGGUGGCCCGAUAGCGCCAACGUCCUCAACCUCCAAUGCAUCCCACCACAUGAUGAUGCCUGAAGAGCCUUGGUUUUUUG [G10A G63C] as the variant, how does the “polymerase ribozyme fitness (log ratio)” value read?
Answer: -0.414

Question: Which “polymerase ribozyme fitness (log ratio)” value does the source give for GACCAAUCUACCCUCAGAGCUCGAGAACAUCUUCGGAUGCAGAGGAGGCAGGCUUCGGUGUCGCGAUAGCGCCAACGUCCUCAACCUCCAAUGCAUCCCCCCACAUGAUGAUGCCUGAAGAGCCUUGGUUUUUUU [G10A G61U A100C G135U] here?
Answer: -1.17

Question: Which “polymerase ribozyme fitness (log ratio)” value does the source give for GACCAAUCUCCCCUCAGAGCUCGAGAACAUCUUCGGUUGCAGAGGAGGCAGGCUUCGGUGGCGCGAUAGCGACAACGUCCUCAACCUCCAAUGCAUCCCACCACAUGAUGAUGCCUGAAGAGCCUUGGUUUUUUG [G10C A37U C72A] here?
Answer: -0.966

Question: With GACCAAUCUACCCUCAGAGCUCGAGAACAUCCUCGGAUGCAGAGGAGGCAGGCUUCGGUGGCGCGAUAGCGGCAACGUCCUCAACCACCAAUGCAUCCCACCACAUGAUGAUGCCUGAAGAGCCUUGGUUAUUUG [G10A U32C C72G U87A U131A] as the variant, how does the “polymerase ribozyme fitness (log ratio)” value read?
Answer: -2.99

Question: Which “polymerase ribozyme fitness (log ratio)” value does the source give for GACCAAUCUACCCUCAGAGCUCGAGAACAUCUUCGGAUGCAGAGGAGGCAGGCUUCGGUGGCUCGAUAGCGCCAACGUCCUCAACUUCCAAUGCAUCCCACCACAUGAUGAUGCCUGAAAAGCCUUGGUUUUUUG [G10A G63U C86U G120A] here?
Answer: 0.0567

Question: Which “polymerase ribozyme fitness (log ratio)” value does the source give for GACCAAUCUCCCCUCAGAGCUCGAGCACAUCUUCGGUUGCAGAGGAGGCAGGCUUCGGUGGCGCGAUAGCGCCAACGCCCUCUACCACCAAUGCAUCCCACCACAUGAUGAUGCGUGAAGAGCCUUAGUUUUUUG [G10C A26C A37U U78C A83U U87A C115G G127A] here?
Answer: -6.88

Question: With GACCAAUCUACCCUCAGAGCUCGAGAACAUCUUCGGAUGCAGAGGAGGCAGGCUUCGGUGUCGCGAUAGCGCCAACGUCCUCAACCUCCAAUGCAUCCCACCACAUGAUGAUGCCUGAAGAACCUUGGUUUUUUG [G10A G61U G122A] as the variant, how does the “polymerase ribozyme fitness (log ratio)” value read?
Answer: 0.738

Question: For GACCAAUCUACCCUCAGAGCUCGAGAACAUCUUCGGAUGCAGAGGAGGCAGGCUUCGGUGGCGCGAUAGCGCCAACGUCCUCAACCUCCAAUGCAUCCCACCACAUGAUGAUGCCUGAAGAGCCUUGGAUUUUUG [G10A U129A], which “polymerase ribozyme fitness (log ratio)” value is on record?
Answer: -1.14

Question: With GACCAAUCUCCCCUCAGAGCUCGAGGACAUCUUCGGAUGCAGAGGAGGCAGGCUUCGGUGGCGCGAUAGCACCAACGUCCUCAACCUCCAAUGCAUCCCACCACAUGAUGAUGCCUGAAGAGCCUUGGUUUUUUG [G10C A26G G71A] as the variant, how does the “polymerase ribozyme fitness (log ratio)” value read?
Answer: -2.61

Question: Which “polymerase ribozyme fitness (log ratio)” value does the source give for GACCAAUCUACCCUCAGAGCUCGAGAACAUCUUCGGAUGCAGAGGAGGCAGGCUUCGGUGGCGCGAUAGCGCCAACGUCCUCAACCUCCAAUGCAUCCCACCACAUAAUGAUGCCUGAAGAGUAUUGGUUUUUUG [G10A G107A C123U C124A] here?
Answer: -4.28

Question: Which “polymerase ribozyme fitness (log ratio)” value does the source give for GACCAAUCUACCCUCAGAGCUCGAGAACAUCUUCGGAUGCAGAGGAGGCAGGCUUCGGUGGCGCGAUAGCGCCAACGUCCUCAACCUCCAAAGCAUCCCACCACAUGAUGAUGCCUGAAGAGCCUUGGUUUUUUG [G10A U92A] here?
Answer: -2.86

Question: With GACCAAUCUACCCUCAGAGCUCGAGAACAUCUUCGGAUGCAGAGGAGGCAGGCUUCGGCGGCGCGCUGGCGCCAACGUCCUCAACCUCCAAUGCAUCCCACCACAGGAUGAUGCCUGAAGUGCCUUGGUUUUUUG [G10A U59C A66C A68G U106G A121U] as the variant, how does the “polymerase ribozyme fitness (log ratio)” value read?
Answer: -4.4

Question: Which “polymerase ribozyme fitness (log ratio)” value does the source give for GACCAAUCUACCCUCAGAGCUCGAGAACAUCUUCGGAUGCAGAGGAGGCAGGCUUCGGUGGCGCGAUAGCGCCAACGUCCUCAACCUCCAAUUCAUCCCACAACAUGAUGAUGCCUGAAGAGCCUUGGUUUUUUG [G10A G93U C102A] here?
Answer: -3.7

Question: Which “polymerase ribozyme fitness (log ratio)” value does the source give for GACCAAUCUCCCCUCAGAGCUCGAGCACAUCUUCGGAUGCAGAGGAGGCAGGCUUCGGUGGCGCGAUAGCGCCAACGUCCUCAACCUCCAAUGCAUCCCACCACAUGAUGAUGCCUGAACAAGCUUGAUUUUUUG [G10C A26C G120C G122A C123G G128A] here?
Answer: -5.85

Question: With GACCAAUCUCCCCUCAGAGCUCGAGAGCAUCUUCGGAUGUAGAGGAGGCAGGCUUCGGUGGCGCGAUAGCGCCAACGUCCUCAACCUCCAAUGCAUCCCACCACAUGAUGAUGCCUGAAGUGCCUUGGUUUUUUG [G10C A27G C40U A121U] as the variant, how does the “polymerase ribozyme fitness (log ratio)” value read?
Answer: 0.906

Question: With GACCAAUCUACCCUCAGAGCUCGAGAACAUCUUCGGAUGCAGAGGAGGCAGGCUUCGGUGGCGCGAUAGCGCCAACGUCCUCAACCUCCAAUGCAUCCCACCACAUGAUGAUGCCUGAAUAACCUUGGUUUUUUG [G10A G120U G122A] as the variant, how does the “polymerase ribozyme fitness (log ratio)” value read?
Answer: 1.51

Question: With GACCAAUCUACCCUCAGAGCUCGAGAACAUCUUCGGAUGCAGAGGAGGCAGGCUUCGGUGGCGCGAUAGCACCAACGUCAUCAACCUCCAAUGCAUCCCACCACAUGAUGAUGCCUGAAGAGCCUUGGUUUUUUG [G10A G71A C80A] as the variant, how does the “polymerase ribozyme fitness (log ratio)” value read?
Answer: -4.78
